For this assay, the target named is OX40 (receptor of OX40L) on tumor-infiltrating T cells of C57BL/6J mice (mouse) (UniProt P47741). Nature of the assay: cell-based or functional assay.
Chain of UniProt P47741 (P47741 20-272): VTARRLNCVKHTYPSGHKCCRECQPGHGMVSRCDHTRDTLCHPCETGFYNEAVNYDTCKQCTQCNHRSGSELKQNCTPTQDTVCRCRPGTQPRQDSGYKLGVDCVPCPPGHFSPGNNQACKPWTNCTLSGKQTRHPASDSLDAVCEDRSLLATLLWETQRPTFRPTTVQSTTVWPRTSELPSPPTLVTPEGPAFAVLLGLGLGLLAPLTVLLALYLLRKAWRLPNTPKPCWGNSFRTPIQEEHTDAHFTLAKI

Turning to “murine OX40L (muOX40L) polypeptide (ligand)”, the percentages of OX40+FoxP3+CD4+ cells in injected tumors of WT mice (FACS) came out at 19%.

The record behind these values is US20250179524A1.
